{"source": "the DeepSol protein solubility set", "data": [{"experiment": "soluble on expression in E. coli; label from the status in PepcDB or PDB records", "values": [{"sequence": "MGSDKIHHHHHHMDTKQTFLEDLKSRDNIKLSLMVMKIIFRETDKLICILADRTGEIKASVPLKDGDIKQGMVIQINGSKNVNLEVKSYKIIRDYNISDYLPTVKRPIEDIMNEIELYTNKYVLSKEGRALNDYFFKDEEFLEKFKKGIGGVSMHHNYIGGLAEHTLNVMKITAKLSEKYKCRRMEVAVLAAKLHDIGKVYEYDCNGPFKYTMRGQMEGHIVIGVELVDRAVRENLNLYPEDFVNRIKGCIVQHHGKLEFGSPREMNMEESFIINYADSIDATMNKISQLKEKTEPDTWSEFDRRIERKLYL", "soluble on expression in E. coli": "not soluble"}, {"sequence": "MVGGDGATRREQSLCDSCYFAAFDLVDAPDTIEVMVCARCGAVHRGNRWVDIGADDYVDVAVAETTEALGVHLEAEDVDWEVRPEKLDDNTVRMHATFTGVVRDTHRTEQVAVTVKVSRQTCQRCGRIAGESYASTVQVRAVGRDPTSEETDRAAELAHRIVADMEATGDREAFVTEIGDAESGTDIKLSTTKIGLKLARKLVEEFGGDFEDHETLITEDDDGNEVYRVTYAVRLPEFVPGDVVDIAADDGGPVLVQSNHGNLKGVRVTTGEPYEASFEDGDSPDARKLGAVADATEATVVTVEDDAAIQILDPDTYEAQTVARPDYVDPDASTVPALKSRAGLHVLPDALEHHHHHH", "soluble on expression in E. coli": "not soluble"}, {"sequence": "MADPNESGLSKSVEIGGISDKLDSMKLSKSKLTFTDLPMDALYECFKQLDYLERMPLRKVCRKFKNAVDGMDPGFKKIRICIYEPEAFDVEFDSNLFYFVKESGNATHYSKFNPRKMLKWKFGNGEDSLEVVMKFVTKMMNFSKYCCKLIERILKQSAYPNLKKIHLFGLNSRQTPSILRHFKPGKLEFLWSDSFNAETMKEMYKLDQWKMAKSQFENIKIRDQCAPGIPSTFGYLWNYHRYAKLVTVGKAVEIKNCLMKSTNFKKWEFCMGMSLDAARVFDPNASGFEISRDGGVKGTIRCLFKGHSVKIDFSPWKFEITKE", "soluble on expression in E. coli": "not soluble"}, {"sequence": "MGSDKIHHHHHHMYVLHICHSYYPPFLDCARQYAALFKDSPYKVVTVYLTGKPDPEVERGSASDEVVFLGYSSKQVKGLKLGAIAKIRQLVKSRNFAFCIAHRAKPTYVALLATGLPVVSVHHNYNDYGRFTRRILVNFYRKRILMLCVSNSVRDEMRQHLKHWPAEQIQTLYNRIDVDAVRQSLLPRQEARRLLELEDDTYVIANVGRLHRDKDQATLLRGFAQALPELPANTLLLILGKGPLEQELKALASELGIAGNVRFAGQVPEARRYFRAFDLFVLTSDHEPFGMVLLEAMAAELPIICSDSGGGAEVVNGYGDLFSLGNPHHLSSLLIARSRLPQAANSSADILHEKFSDAAARKHFFMLTFIKDLLFI", "soluble on expression in E. coli": "not soluble"}, {"sequence": "NFLDFEKPIVELETKIQALRDVSRHSTSASVDLDKELEQLEKKSLELKKKIFSDLGAWQVAQLARHPQRPYTLDYLKHIFTEFDELAGDRAYADDKAIVGGIARLEGRSVMVIGHQKGRETREKVKRNFGMPKPEGYRKALRLMEMAERFNM", "soluble on expression in E. coli": "not soluble"}, {"sequence": "MTEEIVELVLRERISPLLRSHGGDLSLSQIKDKTVFVRFSGACRFCPAAHETVEKIVQAMIREYFKDDNIDVILENSVSDDLLEQAKNILRKPK", "soluble on expression in E. coli": "not soluble"}, {"sequence": "MLQSLKDVAKQAPVHRKLDIQEWKTAEGAKVLFVEAHELPMFDLRLTFAAGSSQDAGTPGLSMLTNAMLNEGVPGKDTTAIAAGFEDLGASFSNGSYRDMAVAGLRSLSEADKRTQALKLFEQVIGQPTFPEDALARIKNQVLAGFEYQKQNPGKLAGLELFKRLYGEHPYAHSSDGDEKSVPTISREQLQAFHKKAYAAGNVVIALVGDLSRQEAEAIAAEVSKALPQGPALAKTLEHHHHHH", "soluble on expression in E. coli": "soluble"}, {"sequence": "MSLNAPQWLGAEGEKIAARHLAAKGYRIVARNYRFHRNEIDIIAFDGEALCFIEVKTRASLGKGHPAESVTRSKQKEIARAAAGYLASLDDPWITCRFDVIAVLALSIDERSIRKYEIEHIKAAFMVGDKGEGHHHHHH", "soluble on expression in E. coli": "soluble"}, {"sequence": "MGIFSERLKEAMQQANITSAQLSKQTGIGRSSISQWLSNKYVAKHDKVTALAAVLNVSPDWLLGTTDVATAVSPEAVPIPVSVTPTPAVDPELITLWEQLDTKQRSKLIKKARKLLTKSAEQPNTKRKKNKKKKKGKKRK", "soluble on expression in E. coli": "not soluble"}, {"sequence": "SANSGCKDVTGPDEESFLYFAYGSNLLTERIHLRNPSAAFFCVARLQDFKLDFGNSQGKTSQTWHGGIATIFQSPGDEVWGVVWKMNKSNLNSLDEQEGVKSGMYVVIEVKVATQEGKEITCRSYLMTNYESAPPSPQYKKIICMGAKENGLPLEYQEKLKAIEPNDYTGKVSEEIEDIIKKGETQTL", "soluble on expression in E. coli": "soluble"}, {"sequence": "MELVATQDGFVGEMARGFTFQALGEVAAGFGKRLQAEGIPRVVVGHDARFLAREMAEHAAGVLGGLGLEVHLLQGPAPLPLFGFALRAKEAAGLYLTGSRRPFAFQGVKLRLGPGRPLPREGGGPRTPPSPGPFAPLEARRDYLDHLRKSAQGLALKRGVVYLDAMGGAGGGILGQVLKRLEAPVELRELHPLPHPLFYGVAPDPRPEHLRTLRLLLREAKPPALGLALDGDADRLGVYLPGGEALPGDQALARLREAAQGREVEALGEGAYRFPWHLEEPDPFLAALLLMGVLL", "soluble on expression in E. coli": "soluble"}, {"sequence": "VALLGLILPYFVSRWWARTQSYTKKGIHNVTASNFVSNLVNYKPSEIVTTDLILHWLSFAHEFKQFFPDLQPTDFEKLLQDHINRRDSGKLNNAKFRIVAKCHSLLHGLLDIACGFRNLDIALGAINTFKCIVQAVPLTPNCQILQLPNVDKEHFITKTGDIHTLGKLFTLEDAKIGEVLGIKDQAKLNETLRVASHIPNLKIIKADFLVPGENQVTPSSTPYISLKVLVRSAKQPLIPTSLIPEENLTEPQDFESQRDPFAMMSKQPLVPYSFAPFFPTKRRGSWCCLVSSQKDGKILQTPIII", "soluble on expression in E. coli": "not soluble"}, {"sequence": "MNAAVVRRTQEALGKVIRRPPLTEKLLSKPPFRYLHDIITEVIRMTGFMKGLYTDAEMKSDNVKDKDAKISFLQKAIDVVVMVSGEPLLAKPARIVAGHEPERTNELLQIIGKCCLNKLSSDDAVRRVLAGEK", "soluble on expression in E. coli": "soluble"}, {"sequence": "MGSDKIHHHHHHMIELERVCKDYHTRQGMRRVLNRIDLRVKQGEKVGILGRNGAGKSTLIRMISGAELPTEGRIRRSMNVSWPLAFGGAFQGSLTGMDNLRFICRVYGADPKAAEPFVQEFSELGYYLREPVKSYSAGMRARLAFAISMAIEFDCFLIDEIVAVGDSRFHAKCHHELFEQRKDRALIIVSHDASYIRQHCDRASVLIEGKLHSFDSVEDAYTFYQESTA", "soluble on expression in E. coli": "not soluble"}, {"sequence": "MSLKYLVIGSNSFTGASMVSYLLDQGADVVGISRSDEPHPAFLPYRWKKADRFRFQKLDLNHDLDAIMQLVTAERFPCIINFAAQSMVGESWANPDHWFMTNVVSTVRLHERLRICDFLERYVHVTTPEVYGNATGTLTEDAVFDPSTPYAVSRAAGDMSLRSYFRAYGFPVLFTRAANVYGPGQRLYRIVPRTILFIKLGRKLQLHGGGTSERSFIHAADVADATRRIACNGKLGDSYHISTDRIVTIRALVEMICAMMRVRFEDQVEIVGERLGKDAAYKLDSSKLRSELGWSDQITLEQGIEQTIAWIDRWFEELKSQPFDYAHKEGHHHHHH", "soluble on expression in E. coli": "not soluble"}, {"sequence": "GSMTEIALIGNPNSGKTSLFNLITGHNQRVGNWPGVTVERKSGLVKKNKDLEIQDLPGIYSMSPYSPEEKVARDYLLSQRADSILNVVDATNLERNLYLTTQLIETGIPVTIALNMIDVLDGQGKKINVDKLSYHLGVPVVATSALKQTGVDQVVKKAAHTTTSTVGDLAFPIYDDRLEAAISQILEVLGNSVPQRSARFYAIKLFEQDSLVEAELDLSQFQRKEIEDIIRITEEIFTEDAESIVINERYAFIERVCQMAESHTEDFALTLS", "soluble on expression in E. coli": "soluble"}, {"sequence": "MTDVALSQDVSRFLRYLGVERQLSPITLLNYQRQLDAIIALAGETGLKSWQQCDAAIVRSFAVRSRRKGLGPASLALRLSALRSFFDWLVSQGELKANPAKGVSAPKAPRHLPKNIDVDDVNRLLDIDLNDPLAVRDRAMLEVMYGAGLRLSELVGLDIKHLDLDTGEVWVMGKGSKERRLPIGRNAVTWIEHWLDLRGLFASDEEALFLSKLGKRISARNVQKRFAEWGIKQGLNSHVHPHKLRHSFATHMLESSGDLRGVQELLGHANLSTTQIYTHLDFQHLASVYDAAHPRAKRGK", "soluble on expression in E. coli": "not soluble"}, {"sequence": "MSTAKAPTLPASIFRAYDIRGVVGDTLTAETAYWIGRAIGSESLARGEPCVAVGRDGRLSGPELVKQLIQGLVDCGCQVSDVGMVPTPVLYYAANVLEGKSGVMLTGSHNPPDYNGFKIVVAGETLANEQIQALRERIEKNDLASGVGSVEQVDILPRYFKQIRDDIAMAKPMKVVVDCGNGVAGVIAPQLIEALGCSVIPLYCEVDGNFPNHHPDPGKPENLKDLIAKVKAENADLGLAFDGDGDRVGVVTNTGTIIYPDRLLMLFAKDVVSRNPGADIIFDVKCTRRLIALISGYGGRPVMWKTGHSLIKKKMKETGALLAGEMSGHVFFKERWFGFDDGIYSAARLLEILSQDQRDSEHVFSAFPSDISTPEINITVTEDSKFAIIEALQRDAQWGEGNITTLDGVRVDYPKGWGLVRASNTTPVLVLRFEADTEEELERIKTVFRNQLKAVDSSLPVPF", "soluble on expression in E. coli": "soluble"}, {"sequence": "AIASAEAADREAVSGSRPCTPPQTSWFEFLLNPSLLEQHLHSPHPDPSPVQLIFQFLEQASKPSVNEQNQVQPPVDNRRNRTLKLMALKVAAHLRWDLNMLEKGLTIPVLNMLLNELLCVSHVPPGVKHVDLDLSSLPPTTAMAVVFYNRWAIRTIVLSSFPEKQTKPGPHQLNMMNMLQQEKEHTENILSVLREQATDSIMVLEGALSIKKDFYIHL", "soluble on expression in E. coli": "soluble"}, {"sequence": "MDNSVMLDYLAVTIKGLAPDDVIEKILILPKDKFVLNEWGINKYQRHYSFSEIKVYFNKDWQSKMGVFIELRGQGCRQYEEYMENNVNNWVTLMKRISECHSNVTRLDIANDIFDDSLSVPLIYSYCKKQLCISTAKTFDYHEKSLLENGEKVGEMVTIGVRGTQQWCVYNKLLEQKLDQELPNTPLSWTRAELRCWQEKANLLAKQIKEGRPLKEIYFEVINGHYRFVSPRDKDSNRWRRKTVKWWNDYLETQEKTVLSVKRTKPTLKRSEKWTEKQVSRTLGKLYVAKAESHGQEKADSYIQHLLELGISKLTETDETDIQQYKQEQLSSAYWGIRKDDL", "soluble on expression in E. coli": "not soluble"}, {"sequence": "MAAQVEIEDQESVTNLDNGEIINPISDNAPNFSGDATILLREATFEHNLIKNCFLSGMGSFATETTIVTVRKILTQRLITTKAKFAVFKLFTEAMKRKNNGYANIRYGWYSGSKEEIDRVITYGFSNREIKKVENDVGSHGVGIHLVHHRYSLAAALVGEGDEEGIKNILLCRVILGKPEQIVTGSKQSYPSSNQFDSGVDNLENPRKYVIWSCNMNSYILPTYIVSFKSHLLRGLIGRARSPCVSFSVLMSILSKSLDAARMNLILTSYDDFRKRKLRREQLVRKIREVVGDNLLFKILKNQRR", "soluble on expression in E. coli": "soluble"}, {"sequence": "MSLARANIDTDAILPKQFMKSIERTGFGVHLFDGFRYLDAGSLGMDCSRRPENPDFILNWPRYREASILLAGANFGCGSSREHAPWAIEQYGFRVLIASSFADIFRDNCFKNGLLPIVLASETMDRLFDEVSHQVGFELEVDLPRQTISCPAGWCIEFEMDSIRKAHLLEGIDEIGSTLSLSKKIGDFERARRQSHPWFFGAEGHHHHHH", "soluble on expression in E. coli": "not soluble"}, {"sequence": "MGSDKIHHHHHHTPLPPVKQPHPATSQQHQEPVRGVWLATVSRLDWPPVTSVNTNSPAIRITQQQEALKGKLDKLKSLGINTVFFQIKPDGTALWPSKILPWSDMMTGHIGEDPGYDPLQFMLDEAHKRGMKVHAWFNPYRVSVNTKSGTVAELNRTLSQNPASVFVLHRDWIRTAGDRFVLDPGIPEARNWITSIVAEVVARYAIDGVQFDDYFYAESPGSVLNDGETFKKYGQGFGSKADWRRHNTQQLIEQVSRTIKQLKPEVEFGVSPAGVWRNRSHDAAGSDTRGAAAYDEAYADTRLWVQQGLLDYIAPQLYWPFARDAARYDVLAKWWADVVKPTSTRLYIGVALYKVGEPSKNEPDWMISGGVPELKKQLDLNESTPHIDGTILFRENYLNQPQTQEAVNYLRNRWNPI", "soluble on expression in E. coli": "not soluble"}]}]}
